Source: paper PMC3678129

Substrate: CCn1c(=NN=c2sc3cc(S(=O)(=O)O)ccc3n2CC)sc2cc(S(=O)(=O)O)ccc21
Assay: purified protein
Conditions: H2O2 25 mM (saturating), no added Ca2+, 100 mM Tris-HCl pH 7.0

B1: Euphorbia characias latex peroxidase (ELP) (Euphorbia characias) (protein)
chain: QTKPPIVNGLSWTFYKSSCPKVESIIQKELKKLFKKDVEQAAGLLRLHFHDCFVLGCDGSVLLNGSAGGPSEQSELPNLSLRKQAFKIVNDLRALVHKECGPVVSCSDIVAIAARDSVVLTGGPKYDVPLGRRDGVKFAEVNATFEHLVGPTANVTTILAKLARKGLDTTDAVSLSGGHTIGIGHCTSFTERLYPSQDPTLDKTFANNLKRTCPNVNTENSTFLDLRTPNEFDNRYYVDLMNRQGLFTSDQDLYTDKRTRQIVIDFAVNQTLFYEKFIIGMIKMGQLEVVTGNQGEIRNDCSFRNSDNYLVSVTDEESGSSSELR
  Km: 0.55 ± 0.02 mM
  kcat: 170 ± 11 s⁻¹
  kcat/Km: 309 mM⁻¹ s⁻¹
